Results reported in the nanobody polyreactivity screen of Harvey et al. (2022).

Experiment: yeast display, Sf9 membrane polyspecificity reagent, FACS + sequencing; frameworks hold sequencing errors
Outline: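 Nanobodies came from a synthetic yeast display library in Saccharomyces cerevisiae BJ5465, induced with galactose for 36–48 hours and stained for 1 hour at 4 °C with 10% biotinylated, detergent-solubilized Sf9 membrane reagent. Cells were enriched on streptavidin microbeads and then FACS-sorted, with low and high (top ~1%) gates set on anti-HA fluorescence for expression and streptavidin fluorescence for reagent binding. Each polyreactivity label reflects the gate a clone came from. Genes were amplified by colony PCR, sequenced by MiSeq 2 × 250 and filtered by CDR length.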

Sequence | polyreactivity (PSR sort gate)
QVQLVESGGGLEQAGGSLRISCAASGITFRWYAMGWYRQAPGKERELVAAISERGGSTYYADSVKGRFTISRDNAKNTVYLQMNSLKPEDTAVYYCAADSQHWQRWHGYWGQGTEVTVSS | high polyreactivity
QVQLVESGGGLVQAGGSLRLSCAASGFNFSQYAMGWYRQAPGKERELVAAISSGSTYADSVKGRFTISRDNAKNSVYLQMNSLKREDTAVYYCANDPFSRGSRRYDYWGQGTQVTVSS | low polyreactivity
QVQHVESGGGLVQAGGRLRLSCAASGRIFGGYTMGWYRQAPGKERELVAAINSGGSTYYADSVKGRFTISRDNAKNTVYLQMNCLKPEDTAVYYCAKVRSYFGKYGYGYWGQGTQVTVSS | high polyreactivity
QVQLVESGGGLVQAGGSLRLSCAASGFTFHYYTMGWYRQAPGKERELVASINYSGGRTYYADSVKGRFTISRDNAKNTVYLQMNSLKPEDTAVYYCNARYKSTYYYWGLGTQVTVSS | high polyreactivity
QVQLVESGGGLVQAGGSLRLSSAASGRTFWNNAMGWYRQAPGKERELVAAITSGGRTNYADSVKGRFTISRDNAKNTVYLQMNSLKPEDTAVYYCAAVGYVIYDYWVQGTQVTVSS | low polyreactivity
QVQLVESGGGLVQAGGSLRLSCAASGFTFTRYAMGWYRQAPGTERELVAAISRRGGSTYYADSVKGRFTISRDNAKNTVYLQMNSLKPEDTAVYYCAKDAGSRTVREFGYWGQGTQVTVSS | high polyreactivity
QVQLVESVGGLVQAGGSLRLSCAASGTFKWYAMGWYRQAPGKERELVAVISSSGGTTYYADSVKGRFTISRDNAKNTVYLQMNSLKPEDTAVYYCNKRFRSWTTGSPYDYWGQGTQVTVSS | high polyreactivity
QVQLVESGGGLVQAGGSLRLRCAASGSTFINNAMGWYRQAPGKERELVAAISGSGVSTYYADSVKGRFTISRDNAKNTVYLQMNSLKPEDTAVYYCNKRYRNYFWYKPYSTKYEYWGQGTQVTVSS | high polyreactivity
QVQLVESGGGLVQAGGSLRLSCAASGYIFLWYAMGWYRQAPGKERELVASISSGSTYYADSVKGRFTISRDNAKNTVYLLMNSLKPEDTAVYYCAAGWFASDYYYWGQGTQVTVSS | low polyreactivity
QVQLVESGGGLVQAGGSLRLSCAASGNTSPYSAMGWYRQAPGKEREWVAGISSGGTTNYADSVKGRFTISRDNAKNTVDLQMNSLKPVDTAVYYCAADEWYVECLGYFFAYDYWGQGTQVTVSS | low polyreactivity
QVQLVESGGGLVQAGGSLRLSCAASGSIFFKYTMGWYRQAPGKERELVAAITYTGGRTYYADSVKGRFTISRDNAKNTVYLQMNSLKPEDTAVYFCNKVTPRQGNRLAGVSGYDYWGQGTQVTVSS | high polyreactivity
QVQLVESGGGLVQAGGSLRLSCAASGFTFWRNVMGWYRQAPGKERELVAVISRGGSTNYADSVKGRFTISRDNAKNTVYLQMNRLKPEDTAVYYCPKYARGPSKVDYWGQGTQVTVSS | high polyreactivity
QVQLVESGGGLVQAGGSLRLSCAASGSIFVANAMGWYRQAPGKERELVAAISASGVTTYYADSVKGRFTISRDNAKNTVYLQMNSLKPEDTAVYYCNADYGSDDDVVRYDYWGQGTQVTVSS | low polyreactivity
QVQLVESGGGLVQAGGSLRLSCAASGSIFSTYAMGGYRQAPGKERELVAAIRDSGDRTYYADSVKGRFTISRDNAKNTVYLQMNSLKPDDTAVYYCYARWQEPLKYDYWGQGTPVTVSS | low polyreactivity
QVHLVESGGGLVQAGGSLRLSCAATGSTFTINAMGWYRQAPGKERELVAAINDGDDTYYADSVKGRFTISRDNAKNTVYLQMNSLKPEDTAVYFCAADIIYGYEVYTYTSDYWGQGTQVTVSS | low polyreactivity
QVQLVESRGGLVQAGGSLRLSCAASGSTFTYNAMGWYRQAPGKERELVASINSGGSTYYADSVKGRFTISRDNAKNNFYLQMNSLKPEDTAVYYCAKDLHLDSYASDYWGQGTQVTVSS | low polyreactivity
QVQLVESGGGLVQAGGSLRLSCAASGRILYTYAMGWYRQAPGKERELVASIRSSGGITYYADSVKGRFTISRDNAKNTVYLQMNSLKPEDTAVYYCNAPYLVGTGPNGEYDYWGQGTEVTVSS | high polyreactivity
